From the supplement of paper PMC7877785
± gives the uncertainty stated by the source.

Assay: self-splicing fitness, log relative to wild type (ln ratio); higher = more splicing; Tetrahymena group I intron in knt gene, E. coli kanamycin selection, DiMSum; sequences stand for … in CUCUCU…GGAGGGAAAAGUUAUCAGGCAUGCACCUGGUAGCUAGUCUUUAAACCAAUAGAUUGCAUCGGUUUAAAAGGCAAGACCGUCAAAUUGCGGGAAAGGGGUCAACAGCCGUUCAGUACCAAGUCUCAGGGGAAACUUUGAGAUGGCCUUGCAAAGGGUAUGGUAAUAAGCUGACGGACAUGGUCCUAACCACGCAGCCAAGUCCUAAGUCAACAGAUCUUCUGUUGAUAUGGAUGCAGUUCACAGACUAAAUGUCGGUCGGGGAAGAUGUAUUCUUCUCAUAAGAUAUAGUCGGACCUCUCCUUAAUGGGAGCUAGCGGAUGAAGUGAUGCAACACUGGAGCCGCUGGGAACUAAUUUGUAUGCGAAAGUAUAUUGAUUAGUUUUGGAGUACUCGUGGUCG
How it was run: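 The eight P1ex-region nucleotides of an intron in the knt kanamycin-resistance gene on pET-22b(+) were all randomised and the library put into E. coli BL21(DE3). Six replicate transformations were grown overnight at 37°C or 30°C on LB agar with or without 25 μg/mL kanamycin, together with 100 μg/mL carbenicillin, 50 μM IPTG and 0.2% rhamnose. Colonies were pooled and amplicon-sequenced on an Illumina HiSeq 2500. Fitness from DiMSum is the error-weighted combination of wild-type-normalised replicate fold changes, kanamycin over none.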

Sequence | self-splicing fitness (ln) (30 °C) | self-splicing fitness (ln) (37 °C)
AGUAAGCAAUAUUACGAUCU | 0.14 ± 0.15 | -0.333 ± 0.14
AGUAAGCAAUAUUACGCAUA | -2.31 ± 0.25 | -1.38 ± 0.15
AGUAAGCAAUAUUACGCGAC | -3.46 ± 0.23 | -2.63 ± 0.25
AGUAAGCAAUAUUACGCGUA | -1.73 ± 0.15 | -0.118 ± 0.16
AGUAAGCAAUAUUACGCUUU | -3.63 ± 0.26 | -2.36 ± 0.22
AGUAAGCAAUAUUACGGAAU | -2.75 ± 0.14 | -1.5 ± 0.15
AGUAAGCAAUAUUACGGACC | -0.0938 ± 0.13 | 0.0977 ± 0.16
AGUAAGCAAUAUUACGGGAC | -3.47 ± 0.26 | -2.45 ± 0.26
AGUAAGCAAUAUUACGGUAA | -2.63 ± 0.28 | -1.68 ± 0.15
AGUAAGCAAUAUUACGGUAU | -2.52 ± 0.17 | -1.35 ± 0.13
AGUAAGCAAUAUUACGUGUC | -3.49 ± 0.21 | -2.24 ± 0.2
AGUAAGCAAUAUUACGUUGC | -4.14 ± 0.21 | -2.21 ± 0.17
AGUAAGCAAUAUUACGUUGU | -3 ± 0.099 | -1.97 ± 0.12
AGUCAGCAAUAUUACGAACA | -0.843 ± 0.076 | -0.406 ± 0.11
AGUCAGCAAUAUUACGAAUU | -0.652 ± 0.064 | -0.509 ± 0.076
AGUCAGCAAUAUUACGACGC | 0.144 ± 0.1 | 0.499 ± 0.13
AGUCAGCAAUAUUACGAGAG | -2.88 ± 0.2 | -1.67 ± 0.18
AGUCAGCAAUAUUACGAGCG | -0.195 ± 0.09 | -0.556 ± 0.1
AGUCAGCAAUAUUACGAGGA | -2.97 ± 0.2 | -1.73 ± 0.16

Sequence | self-splicing fitness (ln) (30 °C) | self-splicing fitness (ln) (37 °C)
AGUCAGCAAUAUUACGAGUA | -2.3 ± 0.13 | -1.31 ± 0.1
AGUCAGCAAUAUUACGAGUU | -1.9 ± 0.092 | -0.799 ± 0.077
AGUCAGCAAUAUUACGAUCU | -0.19 ± 0.07 | 0.36 ± 0.09
AGUCAGCAAUAUUACGCACG | -1.02 ± 0.12 | -0.646 ± 0.15
AGUCAGCAAUAUUACGCCAC | -3.68 ± 0.18 | -3.11 ± 0.19
AGUCAGCAAUAUUACGCCUG | -2.49 ± 0.16 | -0.867 ± 0.11
AGUCAGCAAUAUUACGCGAA | -1.21 ± 0.17 | -0.704 ± 0.15
AGUCAGCAAUAUUACGCGCC | -0.491 ± 0.1 | -0.228 ± 0.11
AGUCAGCAAUAUUACGCUAA | -0.794 ± 0.083 | -0.99 ± 0.083
AGUCAGCAAUAUUACGCUAC | -3.7 ± 0.24 | -4.03 ± 0.46
AGUCAGCAAUAUUACGGAAU | -1.84 ± 0.084 | -0.425 ± 0.077
AGUCAGCAAUAUUACGGACG | -0.173 ± 0.07 | 0.0506 ± 0.1
AGUCAGCAAUAUUACGGCCG | -1.28 ± 0.11 | -0.527 ± 0.085
AGUCAGCAAUAUUACGGCUU | – | -1.91 ± 0.29
AGUCAGCAAUAUUACGGGGU | -4.54 ± 0.31 | -1.5 ± 0.15
AGUCAGCAAUAUUACGGUAC | -3 ± 0.16 | -1.88 ± 0.21
AGUCAGCAAUAUUACGGUGC | -1.68 ± 0.14 | -1.07 ± 0.19
AGUCAGCAAUAUUACGGUUC | -2.98 ± 0.11 | -1.51 ± 0.11
